# Reference: the supplement of paper PMC12458215
# ± gives the uncertainty stated by the source.
# Test system: HEK293T
# Experiment: plasma membrane surface immunostaining intensity (anti-HA, deep receptor scanning) (arbitrary fluorescence units); higher = higher plasma membrane expression
sequence,measurement,setting,value
MKETRGYGGDAPFCTRLNHSYTGMWAPERSAEARGNLTRPPGSGEDCGSVSVAFPITMLLTGFVGNALAMLLVSRSYRRRESKRKKSFLLCIGWLALTDLVGQLLTTPVVIVVYLSKQRWEHIDPSGRLCTFFGLTMTVFGLSSLFIASAMAVERALAIRAPHWYASHMKTRATRAVLLGVWLAVLAFALLPVLGVGQYTVQWPGTWCFISTGRGGNGTSSSHNWGNLFFASAFAFLGLLALTVTFSCNLATIKALVSRCRAKATASQSSAQWGRITTETAIQLMGIMCVLSVCWSPLLIMMLKMIFNQTSVEHCKTHTEKQKECNFFLIAVRLASLNQILDPWVYLLLRKILLRKFCQIRYHTNNYASSSTSLPCQCSSTLMWSDHLER [PTGER3],plasma membrane surface immunostaining intensity,GPCR class: A,684 ± 110
MENGSYTSYFILLGLFNHTRAHQVLFMMVLSIVLTSLFGNSLMILLIHWDHRLHTPMYFLLSQLSLMDVMLVSTTVPKMAADYLTGSKAISRAGCGAQIFFLPTLGGGECFLLAAMAYDRYAAVCHPLRYPTLMSWQLCLRMNLSCWLLGAADGLLQAVATLSFPYCGAHEIDHFFCETPVLVRLACADTSVFENAMYICCVLMLLVPFSLILSSYGLILAAVLHMRSTEARKKAFATCSSHVAVVGLFYGAAIFTYMRPKSHRSTNHDKVVSAFYTMFTPLLNPLIYSVKNSEVKGALTRCMGRCVALSRE [OR2T8],plasma membrane surface immunostaining intensity,GPCR class: A (Olfactory),132 ± 16
MASSTTRGPRVSDLFSGLPPAVTTPANQSAEASAGNGSVAGADAPAVTPFQSLQLVHQLKGLIVLLYSVVVVVGLVGNCLLVLVIARVRRLHNVTNFLIGNLALSDVLMCTACVPLTLAYAFEPRGWVFGGGLCHLVFFLQPVTVYVSVFTLTTIAVDRYVVLVHPLRRRISLRLSAYAVLAIWALSAVLALPAAVHTYHVELKPHDVRLCEEFWGSQERQRQLYAWGLLLVTYLLPLLVILLSYVRVSVKLRNRVVPGCVTQSQADWDRARRRRTFCLLVVIVVVFAVCWLPLHVFNLLRDLDPHAIDPYAFGLVQLLCHWLAMSSACYNPFIYAWLHDSFREELRKLLVAWPRKIAPHGQNMTVSVVI [PRLHR],plasma membrane surface immunostaining intensity,GPCR class: A,5220 ± 340
MEPLNRTEVSEFFLKGFSGYPALEHLLFPLCSAMYLVTLLGNTAIMAVSVLDIHLHTPVYFFLGNLSTLDICYTPTFVPLMLVHLLSSRKTISFAVCAIQMCLSLSTGSTECLLLAITAYDRYLAICQPLRYHVLMSHRLCVLLMGAAWVLCLLKSVTEMVISMRLPFCGHHVVSHFTCKILAVLKLACGNTSVSEDFLLAGSILLLPVPLAFICLSYLLILATILRVPSAARCCKAFSTCLAHLAVVLLFYGTIIFMYLKPKSKEAHISDEVFTVLYAMVTTMLNPTIYSLRNKEVKEAARKVWGRSRASR [OR13J1],plasma membrane surface immunostaining intensity,GPCR class: A (Olfactory),140 ± 33
MRAPGALLARMSRLLLLLLLKVSASSALGVAPASRNETCLGESCAPTVIQRRGRDAWGPGNSARDVLRARAPREEQGAAFLAGPSWDLPAAPGRDPAAGRGAEASAAGPPGPPTRPPGPWRWKGARGQEPSETLGRGNPTALQLFLQISEEEEKGPRGAGISGRSQEQSVKTVPGASDLFYWPRRAGKLQGSHHKPLSKTANGLAGHEGWTIALPGRALAQNGSLGEGIHEPGGPRRGNSTNRRVRLKNPFYPLTQESYGAYAVMCLSVVIFGTGIIGNLAVMCIVCHNYYMRSISNSLLANLAFWDFLIIFFCLPLVIFHELTKKWLLEDFSCKIVPYIEVASLGVTTFTLCALCIDRFRAATNVQMYYEMIENCSSTTAKLAVIWVGALLLALPEVVLRQLSKEDLGFSGRAPAERCIIKISPDLPDTIYVLALTYDSARLWWYFGCYFCLPTLFTITCSLVTARKIRKAEKACTRGNKRQIQLESQMNCTVVALTILYGFCIIPENICNIVTAYMATGVSQQTMDLLNIISQFLLFFKSCVTPVLLFCLCKPFSRAFMECCCCCCEECIQKSSTVTSDDNDNEYTTELELSPFSTIRREMSTFASVGTHC [GPR37],plasma membrane surface immunostaining intensity,GPCR class: A,158 ± 26
MDRRMWGAHVFCVLSPLPTVLGHMHPECDFITQLREDESACLQAAEEMPNTTLGCPATWDGLLCWPTAGSGEWVTLPCPDFFSHFSSESGAVKRDCTITGWSEPFPPYPVACPVPLELLAEEESYFSTVKIIYTVGHSISIVALFVAITILVALRRLHCPRNYVHTQLFTTFILKAGAVFLKDAALFHSDDTDHCSFSTVLCKVSVAASHFATMTNFSWLLAEAVYLNCLLASTSPSSRRAFWWLVLAGWGLPVLFTGTWVSCKLAFEDIACWDLDDTSPYWWIIKGPIVLSVGVNFGLFLNIIRILVRKLEPAQGSLHTQSQYWRLSKSTLFLIPLFGIHYIIFNFLPDNAGLGIRLPLELGLGSFQGFIVAILYCFLNQEVRTEISRKWHGHDPELLPAWRTRAKWTTPSRSAAKVLTSMC [GHRHR],plasma membrane surface immunostaining intensity,GPCR class: B,108 ± 5.4
MYKDCIESTGDYFLLCDAEGPWGIILESLAILGIVVTILLLLAFLFLMRKIQDCSQWNVLPTQLLFLLSVLGLFGLAFAFIIELNQQTAPVRYFLFGVLFALCFSCLLAHASNLVKLVRGCVSFSWTTILCIAIGCSLLQIIIATEYVTLIMTRGMMFVNMTPCQLNVDFVVLLVYVLFLMALTFFVSKATFCGPCENWKQHGRLIFITVLFSIIIWVVWISMLLRGNPQFQRQPQWDDPVVCIALVTNAWVFLLLYIVPELCILYRSCRQECPLQGNACPVTAYQHSFQVENQELSRARDSDGAEEDVALTSYGTPIQPQTVDPTQECFIPQAKLSPQQDAGGV [GPRC5D],plasma membrane surface immunostaining intensity,GPCR class: C,6410 ± 68
MAWRGAGPSVPGAPGGVGLSLGLLLQLLLLLGPARGFGDEEERRCDPIRISMCQNLGYNVTKMPNLVGHELQTDAELQLTTFTPLIQYGCSSQLQFFLCSVYVPMCTEKINIPIGPCGGMCLSVKRRCEPVLKEFGFAWPESLNCSKFPPQNDHNHMCMEGPGDEEVPLPHKTPIQPGEECHSVGTNSDQYIWVKRSLNCVLKCGYDAGLYSRSAKEFTDIWMAVWASLCFISTAFTVLTFLIDSSRFSYPERPIIFLSMCYNIYSIAYIVRLTVGRERISCDFEEAAEPVLIQEGLKNTGCAIIFLLMYFFGMASSIWWVILTLTWFLAAGLKWGHEAIEMHSSYFHIAAWAIPAVKTIVILIMRLVDADELTGLCYVGNQNLDALTGFVVAPLFTYLVIGTLFIAAGLVALFKIRSNLQKDGTKTDKLERLMVKIGVFSVLYTVPATCVIACYFYEISNWALFRYSADDSNMAVEMLKIFMSLLVGITSGMWIWSAKTLHTWQKCSNRLVNSGKVKREKRGNGWVKPGKGSETVV [FZD4],plasma membrane surface immunostaining intensity,GPCR class: F,5830 ± 270
MANFTPVNGSSGNQSVRLVTSSSHNRYETVEMVFIATVTGSLSLVTVVGNILVMLSIKVNRQLQTVNNYFLFSLACADLIIGAFSMNLYTVYIIKGYWPLGAVVCDLWLALDYVVSNASVMNLLIISFDRYFCVTKPLTYPARRTTKMAGLMIAAAWVLSFVLWAPAILFWQFVVGKRTVPDNQCFIQFLSNPAVTFGTAIAAFYLPVVIMTVLYIHISLASRSRVHKHRPEGPKEKKAKTLAFLKSPLMKQSVKKPPPGEAAREELRNGKLEEAPPPALPPPPRPVADKDTSNESSSGSATQNTKERPATELSTTEATTPAMPAPPLQPRALNPASRWSKIQIVTKQTGNECVTAIEIVPATPAGMRPAANVARKFASIARNQVRKKRQMAARERKVTRTIFAILLAFILTWTPYNVMVLVNTFCQSCIPDTVWSIGYWLCYVNSTINPACYALCNATFKKTFRHLLLCQYRNIGTAR [CHRM4],plasma membrane surface immunostaining intensity,GPCR class: A,952 ± 190
MSGENVTKVSTFILVGLPTAPGLQYLLFLLFLLTYLFVLVENLAIILIVWSSTSLHRPMYYFLSSMSFLEIWYVSDITPKMLEGFLLQQKRISFVGCMTQLYFFSSLVCTECVLLASMAYDRYVAICHPLRYHVLVTPGLCLQLVGFSFVSGFTISMIKVCFISSVTFCGSNVLNHFFCDISPILKLACTDFSTAELVDFILAFIILVFPLLATILSYWHITLAVLRIPSATGCWRAFSTCASHLTVVTVFYTALLFMYVRPQAIDSQSSNKLISAVYTVVTPIINPLIYCLRNKEFKDALKKALGLGQTSH [OR6B2],plasma membrane surface immunostaining intensity,GPCR class: A (Olfactory),153 ± 9.6
MLTLTRIRTVSYEVRSTFLFISVLEFAVGFLTNAFVFLVNFWDVVKRQALSNSDCVLLCLSISRLFLHGLLFLSAIQLTHFQKLSEPLNHSYQAIIMLWMIANQANLWLAACLSLLYCSKLIRFSHTFLICLASWVSRKISQMLLGIILCSCICTVLCVWCFFSRPHFTVTTVLFMNNNTRLNWQIKDLNLFYSFLFCYLWSVPPFLLFLVSSGMLTVSLGRHMRTMKVYTRNSRDPSLEAHIKALKSLVSFFCFFVISSCAAFISVPLLILWRDKIGVMVCVGIMAACPSGHAAILISGNAKLRRAVMTILLWAQSSLKVRADHKADSRTLC [TAS2R38],plasma membrane surface immunostaining intensity,GPCR class: Taste,123 ± 18
MPNNSTALSLANVTYITMEIFIGLCAIVGNVLVICVVKLNPSLQTTTFYFIVSLALADIAVGVLVMPLAIVVSLGITIHFYSCLFMTCLLLIFTHASIMSLLAIAVDRYLRVKLTVRYKRVTTHRRIWLALGLCWLVSFLVGLTPMFGWNMKLTSEYHRNVTFLSCQFVSVMRMDYMVYFSFLTWIFIPLVVMCAIYLDIFYIIRNKLSLNLSNSKETGAFYGREFKTAKSLFLVLFLFALSWLPLSIINCIIYFNGEVPQLVLYMGILLSHANSMMNPIVYAYKIKKFKETYLLILKACVVCHPSDSLDTSIEKNSE [ADORA3],plasma membrane surface immunostaining intensity,GPCR class: A,5830 ± 110
MFSPWKISMFLSVREDSVPTTASFSADMLNVTLQGPTLNGTFAQSKCPQVEWLGWLNTIQPPFLWVLFVLATLENIFVLSVFCLHKSSCTVAEIYLGNLAAADLILACGLPFWAITISNNFDWLFGETLCRVVNAIISMNLYSSICFLMLVSIDRYLALVKTMSMGRMRGVRWAKLYSLVIWGCTLLLSSPMLVFRTMKEYSDEGHNVTACVISYPSLIWEVFTNMLLNVVGFLLPLSVITFCTMQIMQVLRNNEMQKFKEIQTERRATVLVLVVLLLFIICWLPFQISTFLDTLHRLGILSSCQDERIIDVITQIASFMAYSNSCLNPLVYVIVGKRFRKKSWEVYQGVCQKGGCRSEPIQMENSMGTLRTSISVERQIHKLQDWAGSRQ [BDKRB2],plasma membrane surface immunostaining intensity,GPCR class: A,664 ± 47
MLLCTARLVGLQLLISCCWAFACHSTESSPDFTLPGDYLLAGLFPLHSGCLQVRHRPEVTLCDRSCSFNEHGYHLFQAMRLGVEEINNSTALLPNITLGYQLYDVCSDSANVYATLRVLSLPGQHHIELQGDLLHYSPTVLAVIGPDSTNRAATTAALLSPFLVPMISYAASSETLSVKRQYPSFLRTIPNDKYQVETMVLLLQKFGWTWISLVGSSDDYGQLGVQALENQATGQGICIAFKDIMPFSAQVGDERMQCLMRHLAQAGATVVVVFSSRQLARVFFESVVLTNLTGKVWVASEAWALSRHITGVPGIQRIGMVLGVAIQKRAVPGLKAFEEAYARADKKAPRPCHKGSWCSSNQLCRECQAFMAHTMPKLKAFSMSSAYNAYRAVYAVAHGLHQLLGCASGACSRGRVYPWQLLEQIHKVHFLLHKDTVAFNDNRDPLSSYNIIAWDWNGPKWTFTVLGSSTWSPVQLNINETKIQWHGKDNQVPKSVCSSDCLEGHQRVVTGFHHCCFECVPCGAGTFLNKSDLYRCQPCGKEEWAPEGSQTCFPRTVVFLALREHTSWVLLAANTLLLLLLLGTAGLFAWHLDTPVVRSAGGRLCFLMLGSLAAGSGSLYGFFGEPTRPACLLRQALFALGFTIFLSCLTVRSFQLIIIFKFSTKVPTFYHAWVQNHGAGLFVMISSAAQLLICLTWLVVWTPLPAREYQRFPHLVMLECTETNSLGFILAFLYNGLLSISAFACSYLGKDLPENYNEAKCVTFSLLFNFVSWIAFFTTASVYDGKYLPAANMMAGLSSLSSGFGGYFLPKCYVILCRPDLNSTEHFQASIQDYTRRCGST [TAS1R1],plasma membrane surface immunostaining intensity,GPCR class: Taste,124 ± 5.5
